The results in this text go back to publication PMC8298264, “Function of cofactor Akirin2 in the regulation of gene expression in model human neutrophil-like HL60 cells” (Bioscience Reports, 2021).

The labels stand for the following.
B1: sp¦Q9HDC9¦APMAP_HUMAN (protein, UniProt Q9HDC9 2-416, looked up)
Adipocyte plasma …: SEADGLRQRRPLRPQVVTDDDGQAPEAKDGSSFSGRVFRVTFLMLAVSLTVPLLGAMMLLESPIDPQPLSFKEPPLLLGVLHPNTKLRQAERLFENQLVGPESIAHIGDVMFTGTADGRVVKLENGEIETIARFGSGPCKTRDDEPVCGRPLGIRAGPNGTLFVADAYKGLFEVNPWKREVKLLLSSETPIEGKNMSFVNDLTVTQDGRKIYFTDSSSKWQRRDYLLLVMEGTDDGRLLEYDTVTREVKVLLDQLRFPNGVQLSPAEDFVLVAETTMARIRRVYVSGLMKGGADLFVENMPGFPDNIRPSSSGGYWVGMSTIRPNPGFSMLDFLSERPWIKRMIFKLFSQETVMKFVPRYSLVLELSDSGAFRRSLHDPDGLVATYISEVHEHDGHLYLGSFRSPFLCRLSLQAV
B2: sp¦P54577¦SYYC_HUMAN (protein, UniProt P54577 1-528, looked up)
Tyrosine--tRNA ligase, …: MGDAPSPEEKLHLITRNLQEVLGEEKLKEILKERELKIYWGTATTGKPHVAYFVPMSKIADFLKAGCEVTILFADLHAYLDNMKAPWELLELRVSYYENVIKAMLESIGVPLEKLKFIKGTDYQLSKEYTLDVYRLSSVVTQHDSKKAGAEVVKQVEHPLLSGLLYPGLQALDEEYLKVDAQFGGIDQRKIFTFAEKYLPALGYSKRVHLMNPMVPGLTGSKMSSSEEESKIDLLDRKEDVKKKLKKAFCEPGNVENNGVLSFIKHVLFPLKSEFVILRDEKWGGNKTYTAYVDLEKDFAAEVVHPGDLKNSVEVALNKLLDPIREKFNTPALKKLASAAYPDPSKQKPMAKGPAKNSEPEEVIPSRLDIRVGKIITVEKHPDADSLYVEKIDVGEAEPRTVVSGLVQFVPKEELQDRLVVVLCNLKPQKMRGVESQGMLLCASIEGINRQVEPLDPPAGSAPGEHVFVKGYEKGQPDEELKPKKKVFEKLQADFKISEECIAQWKQTNFMTKLGSISCKSLKGGNIS
B3: sp¦Q99496¦RING2_HUMAN (protein, UniProt Q99496 2-336, looked up)
E3 ubiquitin-protein ligase …: SQAVQTNGTQPLSKTWELSLYELQRTPQEAITDGLEIVVSPRSLHSELMCPICLDMLKNTMTTKECLHRFCADCIITALRSGNKECPTCRKKLVSKRSLRPDPNFDALISKIYPSRDEYEAHQERVLARINKHNNQQALSHSIEEGLKIQAMNRLQRGKKQQIENGSGAEDNGDSSHCSNASTHSNQEAGPSNKRTKTSDDSGLELDNNNAAMAIDPVMDGASEIELVFRPHPTLMEKDDSAQTRYIKTSGNATVDHLSKYLAVRLALEELRSKGESNQMNLDTASEKQYTIYIATASGQFTVLNGSFSLELVSEKYWKVNKPMELYYAPTKEHK
B4: sp¦Q9H0A0¦NAT10_HUMAN (protein, UniProt Q9H0A0 1-1025, looked up)
RNA cytidine acetyltransferase: MHRKKVDNRIRILIENGVAERQRSLFVVVGDRGKDQVVILHHMLSKATVKARPSVLWCYKKELGFSSHRKKRMRQLQKKIKNGTLNIKQDDPFELFIAATNIRYCYYNETHKILGNTFGMCVLQDFEALTPNLLARTVETVEGGGLVVILLRTMNSLKQLYTVTMDVHSRYRTEAHQDVVGRFNERFILSLASCKKCLVIDDQLNILPISSHVATMEALPPQTPDESLGPSDLELRELKESLQDTQPVGVLVDCCKTLDQAKAVLKFIEGISEKTLRSTVALTAARGRGKSAALGLAIAGAVAFGYSNIFVTSPSPDNLHTLFEFVFKGFDALQYQEHLDYEIIQSLNPEFNKAVIRVNVFREHRQTIQYIHPADAVKLGQAELVVIDEAAAIPLPLVKSLLGPYLVFMASTINGYEGTGRSLSLKLIQQLRQQSAQSQVSTTAENKTTTTARLASARTLYEVSLQESIRYAPGDAVEKWLNDLLCLDCLNITRIVSGCPLPEACELYYVNRDTLFCYHKASEVFLQRLMALYVASHYKNSPNDLQMLSDAPAHHLFCLLPPVPPTQNALPEVLAVIQVCLEGEISRQSILNSLSRGKKASGDLIPWTVSEQFQDPDFGGLSGGRVVRIAVHPDYQGMGYGSRALQLLQMYYEGRFPCLEEKVLETPQEIHTVSSEAVSLLEEVITPRKDLPPLLLKLNERPAERLDYLGVSYGLTPRLLKFWKRAGFVPVYLRQTPNDLTGEHSCIMLKTLTDEDEADQGGWLAAFWKDFRRRFLALLSYQFSTFSPSLALNIIQNRNMGKPAQPALSREELEALFLPYDLKRLEMYSRNMVDYHLIMDMIPAISRIYFLNQLGDLALSAAQSALLLGIGLQHKSVDQLEKEIELPSGQLMGLFNRIIRKVVKLFNEVQEKAIEEQMVAAKDVVMEPTMKTLSDDLDEAAKEFQEKHKKEVGKLKSMDLSEYIIRGDDEEWNEVLNKAGPNASIISLKSDKKRKLEAKQEPKQSKKLKNRETKNKKDMKLKRKK
B5: sp¦O96008¦TOM40_HUMAN (protein, UniProt O96008 1-361, looked up)
Mitochondrial import receptor …: MGNVLAASSPPAGPPPPPAPALVGLPPPPPSPPGFTLPPLGGSLGAGTSTSRSSERTPGAATASASGAAEDGACGCLPNPGTFEECHRKCKELFPIQMEGVKLTVNKGLSNHFQVNHTVALSTIGESNYHFGVTYVGTKQLSPTEAFPVLVGDMDNSGSLNAQVIHQLGPGLRSKMAIQTQQSKFVNWQVDGEYRGSDFTAAVTLGNPDVLVGSGILVAHYLQSITPCLALGGELVYHRRPGEEGTVMSLAGKYTLNNWLATVTLGQAGMHATYYHKASDQLQVGVEFEASTRMQDTSVSFGYQLDLPKANLLFKGSVDSNWIVGATLEKKLPPLPLTLALGAFLNHRKNKFQCGFGLTIG
B6: sp¦O75607¦NPM3_HUMAN (protein, UniProt O75607 2-178, looked up)
Nucleoplasmin-3: AAGTAAALAFLSQESRTRAGGVGGLRVPAPVTMDSFFFGCELSGHTRSFTFKVEEEDDAEHVLALTMLCLTEGAKDECNVVEVVARNHDHQEIAVPVANLKLSCQPMLSLDDFQLQPPVTFRLKSGSGPVRITGRHQIVTMSNDVSEEESEEEEEDSDEEEVELCPILPAKKQGGRP
B7: sp¦P61009¦SPCS3_HUMAN (protein, UniProt P61009 1-180, looked up)
Signal peptidase complex …: MNTVLSRANSLFAFSLSVMAALTFGCFITTAFKDRSVPVRLHVSRIMLKNVEDFTGPRERSDLGFITFDITADLENIFDWNVKQLFLYLSAEYSTKNNALNQVVLWDKIVLRGDNPKLLLKDMKTKYFFFDDGNGLKGNRNVTLTLSWNVVPNAGILPLVTGSGHVSVPFPDTYEITKSY
B8: sp¦Q8TCS8¦PNPT1_HUMAN (protein, UniProt Q8TCS8 46-783, looked up)
Polyribonucleotide …: AVAVDLGNRKLEISSGKLARFADGSAVVQSGDTAVMVTAVSKTKPSPSQFMPLVVDYRQKAAAAGRIPTNYLRREIGTSDKEILTSRIIDRSIRPLFPAGYFYDTQVLCNLLAVDGVNEPDVLAINGASVALSLSDIPWNGPVGAVRIGIIDGEYVVNPTRKEMSSSTLNLVVAGAPKSQIVMLEASAENILQQDFCHAIKVGVKYTQQIIQGIQQLVKETGVTKRTPQKLFTPSPEIVKYTHKLAMERLYAVFTDYEHDKVSRDEAVNKIRLDTEEQLKEKFPEADPYEIIESFNVVAKEVFRSIVLNEYKRCDGRDLTSLRNVSCEVDMFKTLHGSALFQRGQTQVLCTVTFDSLESGIKSDQVITAINGIKDKNFMLHYEFPPYATNEIGKVTGLNRRELGHGALAEKALYPVIPRDFPFTIRVTSEVLESNGSSSMASACGGSLALMDSGVPISSAVAGVAIGLVTKTDPEKGEIEDYRLLTDILGIEDYNGDMDFKIAGTNKGITALQADIKLPGIPIKIVMEAIQQASVAKKEILQIMNKTISKPRASRKENGPVVETVQVPLSKRAKFVGPGGYNLKKLQAETGVTISQVDEETFSVFAPTPSAMHEARDFITEICKDDQEQQLEFGAVYTATITEIRDTGVMVKLYPNMTAVLLHNTQLDQRKIKHPTALGLEVGQEIQVKYFGRDPADGRMRLSRKVLQSPATTVVRTLNDRSSIVMGEPISQSSSNSQ
B9: sp¦P42167¦LAP2B_HUMAN (protein, UniProt P42167 1-454, looked up)
Lamina-associated polypeptide …: MPEFLEDPSVLTKDKLKSELVANNVTLPAGEQRKDVYVQLYLQHLTARNRPPLPAGTNSKGPPDFSSDEEREPTPVLGSGAAAAGRSRAAVGRKATKKTDKPRQEDKDDLDVTELTNEDLLDQLVKYGVNPGPIVGTTRKLYEKKLLKLREQGTESRSSTPLPTISSSAENTRQNGSNDSDRYSDNEEDSKIELKLEKREPLKGRAKTPVTLKQRRVEHNQSYSQAGITETEWTSGSSKGGPLQALTRESTRGSRRTPRKRVETSEHFRIDGPVISESTPIAETIMASSNESLVVNRVTGNFKHASPILPITEFSDIPRRAPKKPLTRAEVGEKTEERRVERDILKEMFPYEASTPTGISASCRRPIKGAAGRPLELSDFRMEESFSSKYVPKYVPLADVKSEKTKKGRSIPVWIKILLFVVVAVFLFLVYQAMETNQVNPFSNFLHVDPRKSN
B10: sp¦Q9Y5Y2¦NUBP2_HUMAN (protein, UniProt Q9Y5Y2 1-271, looked up)
Cytosolic Fe-S cluster …: MEAAAEPGNLAGVRHIILVLSGKGGVGKSTISTELALALRHAGKKVGILDVDLCGPSIPRMLGAQGRAVHQCDRGWAPVFLDREQSISLMSVGFLLEKPDEAVVWRGPKKNALIKQFVSDVAWGELDYLVVDTPPGTSDEHMATIEALRPYQPLGALVVTTPQAVSVGDVRRELTFCRKTGLRVMGIVENMSGFTCPHCTECTSVFSRGGGEELAQLAGVPFLGSVPLDPALMRTLEEGHDFIQEFPGSPAFAALTSIAQKILDATPACLP
B11: sp¦Q15654¦TRIP6_HUMAN (protein, UniProt Q15654 1-476, looked up)
Thyroid receptor-interacting …: MSGPTWLPPKQPEPARAPQGRAIPRGTPGPPPAHGAALQPHPRVNFCPLPSEQCYQAPGGPEDRGPAWVGSHGVLQHTQGLPADRGGLRPGSLDAEIDLLSSTLAELNGGRGHASRRPDRQAYEPPPPPAYRTGSLKPNPASPLPASPYGGPTPASYTTASTPAGPAFPVQVKVAQPVRGCGPPRRGASQASGPLPGPHFPLPGRGEVWGPGYRSQREPGPGAKEEAAGVSGPAGRGRGGEHGPQVPLSQPPEDELDRLTKKLVHDMNHPPSGEYFGQCGGCGEDVVGDGAGVVALDRVFHVGCFVCSTCRAQLRGQHFYAVERRAYCEGCYVATLEKCATCSQPILDRILRAMGKAYHPGCFTCVVCHRGLDGIPFTVDATSQIHCIEDFHRKFAPRCSVCGGAIMPEPGQEETVRIVALDRSFHIGCYKCEECGLLLSSEGECQGCYPLDGHILCKACSAWRIQELSATVTTDC

In one test the test system is human HL60 cells. The test is described as follows: SWATH-MS proteomics, differential protein representation, akirin2 KO vs WT HL60 cells. The test is classed as cell-based. Conditions: SWATH-MS, akirin2 KO vs WT HL60 cells, under-represented in KO. Summed up:
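Three biological replicates per genotype; 150 µg protein FASP/trypsin digested; IDA library (3 µg digest); SWATH variable windows, 5 µg/sample, 3.6 s cycle; gradient 5–30% B 120 min then 30–60% B 15 min; 1% global FDR; TAS normalization.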
B1: the “Fold Change” value was 0.6899 and the “Log (Fold Change)” value is listed as -0.1612.
On the same counts, the results for B2 are 0.6907 and -0.1607.
On the same counts, the results for B3 are 0.6992 and -0.1554.
On the same counts, the results for B4 are 0.7033 and -0.1528.
Consider B5, for which the “Fold Change” value stood at 0.6912 and the “Log (Fold Change)” value is -0.1604.
On the same counts, the results for B6 are 0.6936 and -0.1589.
The matching figures for B7: 0.6925 and -0.1596.
For the molecule B8, the “Fold Change” value is 0.6886 and the “Log (Fold Change)” value is -0.162.
For the molecule B9, the “Fold Change” value is 0.7013 and the “Log (Fold Change)” value is on record as -0.1541.

The same test, now with this note: akirin2 KO vs WT HL60 cells; sheet "Under-represented in KO".
Turning to B10, the “Fold Change” value is recorded as 0.6881 and the “Log (Fold Change)” value was -0.1623.
On the same counts, the results for B11 are 0.6873 and -0.1629.
